According to US20210238298A1 (ALLIGATOR BIOSCIENCE, published 2021):

Molecular target: T1, Human OX40 (R&D systems, #3358_OX) (human, UniProt P43489 29-216)
T1 construct: Bought; Several catalogue numbers are given for it; also called human OX40 (R&D Systems, 3388-OX); OX40-Fc (R&D systems, #3358_OX); not shown: Fc part
T1 sequence: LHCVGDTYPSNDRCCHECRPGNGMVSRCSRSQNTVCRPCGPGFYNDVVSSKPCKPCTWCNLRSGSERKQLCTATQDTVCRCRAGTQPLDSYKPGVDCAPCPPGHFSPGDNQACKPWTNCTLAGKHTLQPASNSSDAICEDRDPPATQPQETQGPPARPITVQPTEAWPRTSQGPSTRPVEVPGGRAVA
Experiment: ELISA: human OX40 coated, goat anti-human kappa light chain HRP, luminescence
Experimental: ELISA plates were coated with human with CTLA-4 (BMS, Orencia) or human OX40 (R&D Systems, 3388-OX) at 0.4 or 0.5 μg/ml, respectively. The ELISA plates were washed with PBST and then blocked with PBST+2% BSA for 1h at room temperature and then washed again with PBST. The bispecific molecules were added in dilution series to the plates and incubated for 1h at room temperature. The ELISA plates were washed, and binding was detected using goat anti human kappa light chain HRP for 1 h at room temperature. SuperSignal Pico Luminescent was used as substrate and luminescence was measured using Fluostar Optima.

EC50 (read off the curve): ~200 pM
B1: anti-OX40 antibody 1168/1135 (antibody, V domains shown)
VH: EVQLLESGGGLVQPGGSLRLSCAASGFTFSGSSMSWVRQAPGKGLEWVSSISYYGGYTYYADSVKGRFTISRDNSKNTLYLQMNSLRAEDTAVYYCARYFPHYYFDYWGQGTLVTVSS
VL: not shown
notes: Tested as IgG
